Results on two proteins are retold here after PMC3267858 (Nature, 2012).

Series [1] concerns the molecule itself. Kind of series: crystal structure.
Series [2] deals with the molecule itself. Kind of series: SEC. Background: In gel filtration, larger molecules generally elute earlier.

B1: C-linker/CNBHD of zebrafish ELK channel (amino acids Q543-L750) (domain or fragment, Danio rerio (zebrafish), UniProt A8WHX9 543-750, looked up)
chain: QRMYSRRSLYHTRTKDLKDFIRVHRLPKALAQRMLECFQTTWSVNNGIDVSELLKDFPDELRADIAMHLNKELLQLPLFESASRGCLRSLSLIIKTSFCAPGEFLIRQGDALQAIYFVCSGSMEVLKDNTVLAILGKGDLIGSDSLTKEQVIKTNANVKALTYCDLQYISLKGLREVLRLYPEYAQKFVSEIQHDLTYNLREGSGADL
In general, stoichiometry N refers to the number of molecules, sites or subunits per partner or assembly. For B1, the “stoichiometry N” value in series [1] was 2.

B2: GFP-tagged C-linker/CNBHD of zELK channels (amino acids Q543-L750) (domain or fragment, Danio rerio (zebrafish), UniProt A8WHX9 543-750, looked up)
chain: B1 chain
For the protein B2, the “stoichiometry N” value in series [2] turned out to be 2.
